In IntAct's records for PubMed 31142615:

Molecular target: marh2_human MARCHF2 (UniProt Q9P0N8)
Sequence (Q9P0N8 whole entry): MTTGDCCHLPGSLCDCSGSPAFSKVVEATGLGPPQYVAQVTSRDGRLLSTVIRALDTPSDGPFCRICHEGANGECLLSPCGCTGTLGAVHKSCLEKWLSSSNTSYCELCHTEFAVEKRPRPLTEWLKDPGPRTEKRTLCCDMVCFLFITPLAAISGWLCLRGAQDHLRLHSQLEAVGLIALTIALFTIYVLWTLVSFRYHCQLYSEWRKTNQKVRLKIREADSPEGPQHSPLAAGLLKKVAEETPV

Sequence of Endoplasmic reticulum-Golgi intermediate compartment protein 3 (Homo sapiens), Q9Y282 K6R;K8R (Q9Y282 whole entry K6R/K8R): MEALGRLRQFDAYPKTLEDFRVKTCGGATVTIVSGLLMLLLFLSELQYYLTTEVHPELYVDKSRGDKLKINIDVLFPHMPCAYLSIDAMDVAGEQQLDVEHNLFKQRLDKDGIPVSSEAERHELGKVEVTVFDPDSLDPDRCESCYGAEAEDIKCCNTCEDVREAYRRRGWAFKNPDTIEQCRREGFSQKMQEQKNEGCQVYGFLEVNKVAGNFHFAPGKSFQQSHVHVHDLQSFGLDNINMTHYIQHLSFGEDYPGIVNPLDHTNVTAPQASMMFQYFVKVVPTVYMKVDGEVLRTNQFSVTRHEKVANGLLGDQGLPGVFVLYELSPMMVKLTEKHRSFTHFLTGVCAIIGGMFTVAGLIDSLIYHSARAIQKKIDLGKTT

effect of a mutation on the interaction: with no effect
Substance: Endoplasmic reticulum-Golgi intermediate compartment protein 3 (Homo sapiens), Q9Y282 K6R;K8R
